In paper PMC11224324:

What was measured:
[1] = target: REC_(hHK3), REC-1 domain of hybrid histidine kinase hHK3 (group III, ortholog of Nik1) from Chaetomium thermophilum (Chaetomium thermophilum); experiment: SEC-MALS; 20 µg of protein injected on PROTEIN KW-403 4F (Shodex); 50 mM Hepes pH 7, 150 mM NaCl; 0.35 ml/min; without and with PAM or BeF3-
[2] = target: Ct_HPt, histidine phosphotransfer protein from Chaetomium thermophilum (residues 9-175), Streptag removed (Chaetomium thermophilum)
[3] = target: Histag-Ct_HPt (residues 9-175), labelled with Red-Tris NTA dye (Chaetomium thermophilum); experiment: MST; Histag-Ct_HPt labelled with Red-Tris NTA dye held constant; REC-1 domain in sixteen two-fold dilutions from 1 mM (0.32 mM for REC_hHK6); PBS + 0.05% Tween-20; medium MST power; hyperbolic fit, 1:1 model; mean of two titrations
[4] = target: REC_(hHK6), REC-1 domain of hybrid histidine kinase hHK6 (group VI, ortholog of Sln1) from Chaetomium thermophilum (Chaetomium thermophilum); experiment: SEC-MALS; 20 µg of protein injected on PROTEIN KW-403 4F (Shodex); 50 mM Hepes pH 7, 150 mM NaCl; 0.35 ml/min; without and with PAM or BeF3-

Chain of Ct_HPt, histidine phosphotransfer protein from Chaetomium thermophilum (residues 9-175), Streptag removed (Chaetomium thermophilum) (main, as listed by the source): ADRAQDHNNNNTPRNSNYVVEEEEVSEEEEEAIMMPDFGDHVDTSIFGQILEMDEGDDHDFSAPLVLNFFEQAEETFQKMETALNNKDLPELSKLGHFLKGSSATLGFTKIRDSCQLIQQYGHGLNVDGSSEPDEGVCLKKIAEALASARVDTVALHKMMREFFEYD

## REC_(hHK3), REC-1 domain of hybrid histidine kinase hHK3 (group III, ortholog of Nik1) from Chaetomium thermophilum (domain or fragment)
[1]
  stoichiometry N: 3

## REC_(hHK4), REC-1 domain of hybrid histidine kinase hHK4 (group IV) from Chaetomium thermophilum (domain or fragment)
[2]
  phosphorylated Ct HPt (Ct HPt~P) on native gel after 30 min with REC-1 domain pre-phosphorylated with PAM (control of Ct HPt with PAM alone ~15%; none with AcP): 35%

## REC_(hHK5), REC-1 domain of hybrid histidine kinase hHK5 (group V) from Chaetomium thermophilum (domain or fragment)
[3]
  Kd: 94 µM

## REC_(hHK6), REC-1 domain of hybrid histidine kinase hHK6 (group VI, ortholog of Sln1) from Chaetomium thermophilum (domain or fragment)
[4]
  stoichiometry N: 2

## REC_(hHK11), REC-1 domain of hybrid histidine kinase hHK11 (group XI) from Chaetomium thermophilum (domain or fragment)
[2]
  phosphorylated Ct HPt (Ct HPt~P) on native gel after 30 min with REC-1 domain pre-phosphorylated with PAM (control of Ct HPt with PAM alone ~15%; none with AcP): 35%
